# Measured values: patent US20230399388A1 (Sanofi, published 2023)
# Substitutions are numbered along the chain they refer to. Where two headings read alike, the source gives them in different places. Primed or numbered codes have the meaning given here. Ends that are not written are not given here. Biotin′ = not defined here
# T1: KRPPGFSPFR-biotin
# T1 construct: also called KD-b; KD-biotin
# T1 peptide: KRPPGFSPFR-biotin
# T2: RRPPGFSPFR-biotin (mouse)
# T2 construct: also called KLP-b; KLP-biotin
# T2 peptide: RRPPGFSPFR-biotin
# T3: RRPPGFSPF-biotin (mouse)
# T3 construct: also called DAKLP-b; DAKLP-biotin
# T3 peptide: RRPPGFSPF-{Biotin′}
# T4: kallidin
# T4 peptide: KRPPGFSPFR
# T5: desArg10kallidin like peptide (mouse)
# T5 peptide: RRPPGFSPF
# B1: humanized F151 variant HC3a/LC3a (antibody, human IgG1, V domains shown)
# VH: QIQLVQSGAEVKKPGASVKVSCKASGYSFTDYNIYWVRQAPGQGLEWIGYFDPYNGNTGYNQKFRGRATLTVDKSTSTAYMELRSLRSDDTAVYYCANYYRYDDHAMDYWGQGTLVTVSS
# VL: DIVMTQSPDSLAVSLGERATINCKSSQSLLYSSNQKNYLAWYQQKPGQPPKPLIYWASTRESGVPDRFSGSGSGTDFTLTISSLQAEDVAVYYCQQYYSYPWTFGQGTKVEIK
# notes: also called hF151
# B2: humanized F151 variant HC3b/LC3b (antibody, human IgG1, V domains shown)
# VH: B1 VH with I2V, I48M, A68V, L70M, V72T, K74T
# VL: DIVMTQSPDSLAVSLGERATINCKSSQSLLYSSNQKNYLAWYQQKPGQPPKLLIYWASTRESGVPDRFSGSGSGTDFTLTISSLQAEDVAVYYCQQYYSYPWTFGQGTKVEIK
# notes: also called LC3bxHC3b
# B3: humanized F151 variant HC2a/LC2a (antibody, human IgG1, V domains shown)
# VH: QIQLVQSGAEVKKPGASVKVSCKASGYSFTDYNIYWVKQSPGKGLEWIGYFDPYNGNTGYNQKFRGKATLTVDKSSSTAYMHLSSLTSEESAVYYCANYYRYDDHAMDYWGQGTSVTVSS
# VL: DIVMTQSPSSLSASVGDRVTISCKSSQSLLYSSNQKNYLAWYQQKPGKSPKPLIYWASTRESGVPDRFSGSGSGTDFTLTISSVQAEDLATYYCQQYYSYPWTFGGGTKLEIK
# notes: also called LC2axHC2a
# B4: humanized F151 variant HC1/LC1 (antibody, V domains shown)
# VH: B3 VH with Q1E, A9P, G44S, Y80F, E90D
# VL: B3 VL with T5S, S12A, I21M, S69T, T91I
# notes: also called LC1xHC1
# B5: humanized F151 variant HC2b/LC2a (antibody, human IgG1, V domains shown)
# VH: B3 VH with Q62E
# VL: B3 VL
# notes: also called LC2axHC2b
# B6: humanized F151 variant HC2c/LC2b (antibody, human IgG1, V domains shown)
# VH: B3 VH with L86K
# VL: B3 VL with L89K
# notes: also called LC2bxHC2c
# B7: I22 (antibody, V domains shown)
# VH: EVQLQQSGAELVRSGASVKLSCTASGFNIKDYYMHWVKQRPEQGLEWIGWVDPENGDSDYAPKFQGKATMTADTSSNTVYLQFSSLTSEDTAVYYCNAFEYDGNYSPLDFWGQGTSVTVSS
# VL: DIVMTQSPSSLSVSAGEKVTMSCKSSQSLLNSGNQKNYLAWYQQKPGQPPKLLIYGASTRESGVPDRFTGSGSGTDFTLTISSVQAEDLAVYYCQNDHSYPLTFGAGTKLELK
# notes: Murine hybridoma antibody; Family 1
# B8: I54 (antibody, V domains shown)
# VH: B7 VH
# VL: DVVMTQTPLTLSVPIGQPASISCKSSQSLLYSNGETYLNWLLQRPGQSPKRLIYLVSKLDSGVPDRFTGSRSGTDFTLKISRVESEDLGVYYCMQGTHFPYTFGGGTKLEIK
# notes: Murine hybridoma antibody; Family 1; also called 154
# B9: C63 (antibody, V domains shown)
# VH: EVKLEESGGGLVQPGGSMKLSCVASGFTFSNYWMNWVRQSPEKGLEWVAEIRSKSNNYATHYAESVKGRFTISRDDSKSSVYLQMNNLRAEDTGIYYCIGEDYGGDYWGQGTSVTVSS
# VL: DIVMSQSPSSLAVSVGEKVTMSCKSSQSLLYSSDQRNYLAWYQQRSGQSPKLLIYWASTRESGVPDRFTGSGSGTDFTLTISSVKAEDLAVYYCQQYYSYPYTFGGGTKLEIK
# notes: Murine hybridoma antibody; Family 2
# Key:
# KRPPGFSPFR-biotin [1] = target: T1, KRPPGFSPFR-biotin; test: Biacore, biotin-peptide on SA chip;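 on kon: purified antibodies injected as twofold dilutions from 0.1 to 10 nM in HBS-EP over streptavidin-captured biotinylated BKR1 or BKR2 ligand peptides, with a random-peptide flow cell as reference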
# Source text: (§1) For antibody binding kinetics, the instruments used were the BIACORE 2000 or BIACORE 3000 (GE Healthcare), designed for biomolecular interaction analysis (BIA) in real time. The sensor chip used was SA chip (GE Healthcare) with streptavidin covalently immobilized on a carboxymethylated dextran matrix. Each sensor chip has four parallel flow cells (Fc). Every biotinylated BKR1 or BKR2 ligand peptides were immobilized to one of the flow cells 2 to 4 (Fc2 to Fc4) in the SA chip for binding dissociation rate screening and selectivity screening. Flow cell 1 (Fc1) was reserved and immobilized with a random peptide (biotinylated at one terminus) with equal or close peptide length in comparison to the testing ligand peptides as the negative control. In screening assays, cell culture supernatants of the hybridoma clones selected through primary screening of transiently expressed humanized variants were injected over immobilized peptides. Hybridoma cell culture media was also injected over the chip surface as blank to establish a baseline. After subtracting signals of Fc1 and blank buffer runs, the dissociation rate of the antibodies from the supernatants to each peptide was analyzed and ranked using BIAevaluation software. […] In kinetics analysis, the corresponding biotin-peptides identified in screening for the testing antibody were immobilized in Fc2 to Fc4 while Fc1 with a random peptide used as reference cell. Each purified antibody selected from screenings were made into a series of two fold dilutions in running buffer (1×HBS-EP buffer, GE Healthcare) between 0.1 to 10 nM. Binding association rate, dissociation rate and the overall affinity were calculated in BIAevaluation.
# …-biotin [2] = target: T6, …-biotin (C-terminal biotin); test: Biacore, biotin-peptide on SA chip;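 on kon: purified antibodies injected as twofold dilutions from 0.1 to 10 nM in HBS-EP over streptavidin-captured biotinylated BKR1 or BKR2 ligand peptides, with a random-peptide flow cell as reference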
# T6 construct: also called DAKD-b; DAKD-biotin
# Source text: as §1
# RRPPGFSPFR-biotin [3] = target: T2, RRPPGFSPFR-biotin; test: Biacore, biotin-peptide on SA chip;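 on kon: purified antibodies injected as twofold dilutions from 0.1 to 10 nM in HBS-EP over streptavidin-captured biotinylated BKR1 or BKR2 ligand peptides, with a random-peptide flow cell as reference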
# Source text: as §1
# RRPPGFSPF-biotin [4] = target: T3, RRPPGFSPF-biotin; test: Biacore, biotin-peptide on SA chip;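 on kon: purified antibodies injected as twofold dilutions from 0.1 to 10 nM in HBS-EP over streptavidin-captured biotinylated BKR1 or BKR2 ligand peptides, with a random-peptide flow cell as reference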
# Source text: as §1
# kallidin [5] = target: T4, kallidin; test: cell-based or functional assay
# desArg10kallidin [6] = test: cell-based or functional assay
# desArg10kallidin [7] = test: cell-based or functional assay; remark: listed apart in the source
# [8] = target: T5, desArg10kallidin like peptide; test: cell-based or functional assay
# kallidin [9] = target: T4, kallidin; test: cell-based or functional assay
# KRPPGFSPFR-biotin [10] = target: T1, KRPPGFSPFR-biotin; test: Biacore, biotin-peptide on SA chip
# Source text: as §1
# …-biotin [11] = target: T6, …-biotin; test: Biacore, biotin-peptide on SA chip; remark: listed apart in the source
# Source text: as §1
# RRPPGFSPFR-biotin [12] = target: T2, RRPPGFSPFR-biotin; test: Biacore, biotin-peptide on SA chip
# Source text: as §1
# RRPPGFSPF-biotin [13] = target: T3, RRPPGFSPF-biotin; test: Biacore, biotin-peptide on SA chip
# Source text: as §1
# biotin-RPPGFSPF = target: T7, biotin-RPPGFSPF (N-terminal biotin); test: ELISA, biotin-peptide on streptavidin plate
# T7 construct: also called b-DABK; biotin-DABK
# RPPGFSPF-biotin = target: T8, RPPGFSPF-biotin (C-terminal biotin); test: ELISA, biotin-peptide on streptavidin plate
# T8 construct: also called DABK-b
# KRPPGFSPFR-biotin [14] = target: T1, KRPPGFSPFR-biotin; test: Biacore, biotin-peptide on SA chip
# …-biotin [15] = target: T6, …-biotin; test: Biacore, biotin-peptide on SA chip; remark: listed apart in the source
# [16] = target: T9, biotin-… (N-terminal biotin); test: ELISA, biotin-peptide on streptavidin plate
# T9 construct: also called b-BK
# …-biotin [17] = target: T10, …-biotin (C-terminal biotin); test: ELISA, biotin-peptide on streptavidin plate
# T10 construct: also called BK-b
Binder,Kd (KRPPGFSPFR-biotin [1]) [nM],koff (KRPPGFSPFR-biotin [1]) [s⁻¹],kon (KRPPGFSPFR-biotin [1]) [M⁻¹ s⁻¹],Kd (…-biotin [2]) [nM],koff (…-biotin [2]) [s⁻¹],kon (…-biotin [2]) [M⁻¹ s⁻¹],Kd (RRPPGFSPFR-biotin [3]) [nM],koff (RRPPGFSPFR-biotin [3]) [s⁻¹],kon (RRPPGFSPFR-biotin [3]) [M⁻¹ s⁻¹],Kd (RRPPGFSPF-biotin [4]) [nM],koff (RRPPGFSPF-biotin [4]) [s⁻¹],kon (RRPPGFSPF-biotin [4]) [M⁻¹ s⁻¹],"Mean Molar Ratio, ligand depletion, calcium mobilization in HEK mBKR1 cells (desArg10kallidin [7]) [molar ratio]","Mean Molar Ratio, ligand depletion, calcium mobilization in HEK mBKR1 cells [8] [molar ratio]","Mean Molar Ratio, ligand depletion, calcium mobilization in MRC5 cells (kallidin [9]) [molar ratio]",Kd (KRPPGFSPFR-biotin [10]) [nM],koff (KRPPGFSPFR-biotin [10]) [s⁻¹],Kd (…-biotin [11]) [nM],koff (…-biotin [11]) [s⁻¹],other results
B1,0.00678,2.95e-06,427000,0.0253,1.28e-05,506000,0.00106,5.43e-07,502000,0.0305,1.42e-05,465000,–,–,–,–,–,–,–,–
B2,0.0144,3.02e-06,251000,0.135,5.15e-05,385000,0.526,0.000272,539000,40.5,0.00276,70400,–,–,–,–,–,–,–,–
B3,0.00871,6.12e-06,703000,0.0183,1.22e-05,666000,0.0434,2.68e-05,615000,0.0138,5.67e-06,410000,–,–,–,–,–,–,–,–
B4,0.000394,1.74e-07,424000,0.0145,6e-06,416000,0.00554,2.67e-06,481000,0.016,7.96e-06,500000,–,–,–,–,–,–,–,–
B5,0.00472,1.66e-06,375000,0.0257,1.05e-05,417000,0.00576,2.2e-06,401000,0.0297,1.3e-05,446000,–,–,–,–,–,–,–,–
B6,0.0174,9.08e-06,564000,0.0901,4.34e-05,481000,0.0198,1.02e-05,516000,0.0121,1.1e-05,903000,–,–,–,–,–,–,–,–
B7,–,–,–,–,–,–,–,–,–,–,–,–,0.07,0.21,0.22,0.0044,2.1e-05,0.217,0.000319,"FLIPR (nM), KD (15 nM) (kallidin [5]): 25 nM; FLIPR (nM), DAKD (50 nM) (desArg10kallidin [6]): 9.4 nM; Kd (RRPPGFSPFR-biotin [12]): 0.00182 nM; koff (RRPPGFSPFR-biotin [12]): 1.03e-05 s⁻¹; Kd (RRPPGFSPF-biotin [13]): ≤ 0.00183 nM; koff (RRPPGFSPF-biotin [13]): ≤ 1e-06 s⁻¹"
B8,–,–,–,–,–,–,–,–,–,–,–,–,0.15,0.35,0.3,0.0112,3.88e-05,0.00953,3.06e-05,"FLIPR (nM), KD (15 nM) (kallidin [5]): 30 nM; FLIPR (nM), DAKD (50 nM) (desArg10kallidin [6]): 8.1 nM; Kd (RRPPGFSPFR-biotin [12]): 0.00956 nM; koff (RRPPGFSPFR-biotin [12]): 6.04e-05 s⁻¹; Kd (RRPPGFSPF-biotin [13]): 0.0117 nM; koff (RRPPGFSPF-biotin [13]): 5.66e-05 s⁻¹; binding result (biotin-RPPGFSPF): binds; binding result (RPPGFSPF-biotin): binds"
B9,–,–,–,–,–,–,–,–,–,–,–,–,0.08,5.85,0.23,0.221,0.0001,0.142,9.36e-05,Kd (KRPPGFSPFR-biotin [14]): 0.221 nM; Kd (…-biotin [15]): 0.142 nM; binding result (RRPPGFSPFR-biotin [12]): no binding; binding result (RRPPGFSPF-biotin [13]): no binding; binding result [16]: no binding; binding result (…-biotin [17]): no binding
